The record followed here is the supplement of paper PMC10567573.

To fix the notation:
B1: LRRC45 (parent)
chain: FQTRQEMTSMSAELKMRAIQAEER
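Note: lentivirally expressed fusions sorted by FACS into six bins by GFP to DsRed ratio, PSI derived from sequencing read proportions per bin multiplied by bin number.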

Variants of B1 are the subject of the data set. Put plainly: protein stability index of a GFP-peptide fusion (GPS, HEK-293T) (PSI 1-6); higher = more stable. The settings on record: c terminus: a fixed tail appended.
FQTRQEMTSMVAELKMRAIQAEER [S11V]: the protein stability index amounted to 3.74.

On to FQTRQEMTSMWAELKMRAIQAEER [S11W], for which the protein stability index was 1.96.

FQTRQEMTSMYAELKMRAIQAEER [S11Y]: the protein stability index turned out to be 2.93.

Consider FQTRQEMTSMSAELKGRAIQAEER [M16G], for which the protein stability index stood at 4.

For FQTRQEMTSMSAELKIRAIQAEER [M16I], the protein stability index was found to be 3.52.

Take FQTRQEMTSMSAELKQRAIQAEER [M16Q]: the protein stability index is 4.03.

In the case of FQTRQEMTSMSAELKERAIQAEER [M16E], the protein stability index amounted to 4.68.

For FQTRQEMTSMSAELKCRAIQAEER [M16C], the protein stability index was 3.79.

For FQTRQEMTSMSAELKYRAIQAEER [M16Y], the protein stability index is 3.83.

Consider FQTRQEMTSMSAELKARAIQAEER [M16A], for which the protein stability index came to 4.39.

Take FQTRQEMTSMSAELKNRAIQAEER [M16N]: the protein stability index worked out at 4.16.

In the case of FQTRQEMTSMSAELKSRAIQAEER [M16S], the protein stability index was 4.37.

For the variant FQTRQEMTSMSAELKRRAIQAEER [M16R], the protein stability index was found to be 4.21.

For the variant FQTRQEMTSMSAELKTRAIQAEER [M16T], the protein stability index was 3.96.

Consider FQTRQEMTSMSAELKVRAIQAEER [M16V], for which the protein stability index came to 3.99.

FQTRQEMTSMSAELKHRAIQAEER [M16H]: the protein stability index was 3.88.

As to FQTRQEMTSMSAELKKRAIQAEER [M16K], the protein stability index worked out at 4.36.

With FQTRQEMTSMSAELKPRAIQAEER [M16P], the protein stability index was 3.98.

Regarding FQTRQEMTSMSAELKFRAIQAEER [M16F], the protein stability index turned out to be 3.75.

Take FQTRQEMTSMSAELKLRAIQAEER [M16L]: the protein stability index worked out at 4.24.

On to FQTRQEMTSMSAELKWRAIQAEER [M16W], for which the protein stability index was 3.66.

In the case of FQTRQEMTSMSAELKDRAIQAEER [M16D], the protein stability index worked out at 4.38.

As for FQTRQEMTSMSAELKMYAIQAEER [R17Y], the protein stability index came to 3.67.

In the case of FQTRQEMTSMSAELKMLAIQAEER [R17L], the protein stability index was 3.95.

On to FQTRQEMTSMSAELKMWAIQAEER [R17W], for which the protein stability index is 2.3.

On to FQTRQEMTSMSAELKMGAIQAEER [R17G], for which the protein stability index worked out at 3.82.

FQTRQEMTSMSAELKMPAIQAEER [R17P]: the protein stability index came to 4.33.

As to FQTRQEMTSMSAELKMDAIQAEER [R17D], the protein stability index was 4.59.

FQTRQEMTSMSAELKMTAIQAEER [R17T]: the protein stability index was 4.08.

Regarding FQTRQEMTSMSAELKMFAIQAEER [R17F], the protein stability index came to 2.84.

For FQTRQEMTSMSAELKMSAIQAEER [R17S], the protein stability index worked out at 3.43.

FQTRQEMTSMSAELKMCAIQAEER [R17C]: the protein stability index was 4.01.

For the variant FQTRQEMTSMSAELKMKAIQAEER [R17K], the protein stability index was 4.25.

As for FQTRQEMTSMSAELKMQAIQAEER [R17Q], the protein stability index came to 3.89.

As to FQTRQEMTSMSAELKMHAIQAEER [R17H], the protein stability index was determined as 4.09.

For the variant FQTRQEMTSMSAELKMIAIQAEER [R17I], the protein stability index worked out at 3.94.

Consider FQTRQEMTSMSAELKMEAIQAEER [R17E], for which the protein stability index stood at 4.33.

For FQTRQEMTSMSAELKMVAIQAEER [R17V], the protein stability index came to 3.75.

Regarding FQTRQEMTSMSAELKMMAIQAEER [R17M], the protein stability index worked out at 4.18.

For the variant FQTRQEMTSMSAELKMAAIQAEER [R17A], the protein stability index worked out at 4.34.

As to FQTRQEMTSMSAELKMNAIQAEER [R17N], the protein stability index was 4.07.

For the variant FQTRQEMTSMSAEWKMRAIQAEER [L14W], the protein stability index amounted to 3.2.

With FQTRQEMTSMSAEIKMRAIQAEER [L14I], the protein stability index turned out to be 4.13.

Consider FQTRQEMTSMSAEHKMRAIQAEER [L14H], for which the protein stability index stood at 4.34.

For FQTRQEMTSMSAEFKMRAIQAEER [L14F], the protein stability index amounted to 3.21.

Turning to FQTRQEMTSMSAERKMRAIQAEER [L14R], the protein stability index is 4.23.

As for FQTRQEMTSMSAETKMRAIQAEER [L14T], the protein stability index turned out to be 4.38.

In the case of FQTRQEMTSMSAEEKMRAIQAEER [L14E], the protein stability index amounted to 3.99.

Turning to FQTRQEMTSMSAEDKMRAIQAEER [L14D], the protein stability index was 3.89.

Turning to FQTRQEMTSMSAENKMRAIQAEER [L14N], the protein stability index worked out at 4.18.

FQTRQEMTSMSAEPKMRAIQAEER [L14P]: the protein stability index amounted to 3.99.

In the case of FQTRQEMTSMSAEKKMRAIQAEER [L14K], the protein stability index is 4.12.

Consider FQTRQEMTSMSAEMKMRAIQAEER [L14M], for which the protein stability index is 3.83.

As to FQTRQEMTSMSAEGKMRAIQAEER [L14G], the protein stability index is 4.24.

On to FQTRQEMTSMSAEAKMRAIQAEER [L14A], for which the protein stability index is 4.16.

Consider FQTRQEMTSMSAECKMRAIQAEER [L14C], for which the protein stability index was found to be 3.72.

Turning to FQTRQEMTSMSAESKMRAIQAEER [L14S], the protein stability index stood at 4.11.

In the case of FQTRQEMTSMSAEYKMRAIQAEER [L14Y], the protein stability index is 3.74.

Regarding FQTRQEMTSMSAEQKMRAIQAEER [L14Q], the protein stability index stood at 4.28.

Consider FQTRQEMTSMSAEVKMRAIQAEER [L14V], for which the protein stability index amounted to 4.21.

On to FQTRQEMTSMSAELKMRAGQAEER [I19G], for which the protein stability index was found to be 3.89.

Turning to FQTRQEMTSMSAELKMRAAQAEER [I19A], the protein stability index is 4.53.

On to FQTRQEMTSMSAELKMRAMQAEER [I19M], for which the protein stability index is 3.84.

Regarding FQTRQEMTSMSAELKMRALQAEER [I19L], the protein stability index is 4.08.

As for FQTRQEMTSMSAELKMRAPQAEER [I19P], the protein stability index was determined as 3.84.

Take FQTRQEMTSMSAELKMRATQAEER [I19T]: the protein stability index turned out to be 4.21.

For FQTRQEMTSMSAELKMRAYQAEER [I19Y], the protein stability index is 3.8.

With FQTRQEMTSMSAELKMRAVQAEER [I19V], the protein stability index came out at 4.28.

For the variant FQTRQEMTSMSAELKMRARQAEER [I19R], the protein stability index was 4.19.

Regarding FQTRQEMTSMSAELKMRACQAEER [I19C], the protein stability index came out at 3.96.

In the case of FQTRQEMTSMSAELKMRAQQAEER [I19Q], the protein stability index is 4.09.

Consider FQTRQEMTSMSAELKMRAFQAEER [I19F], for which the protein stability index is 3.81.

For FQTRQEMTSMSAELKMRAWQAEER [I19W], the protein stability index is 3.04.

Consider FQTRQEMTSMSAELKMRAEQAEER [I19E], for which the protein stability index came out at 4.55.

On to FQTRQEMTSMSAELKMRANQAEER [I19N], for which the protein stability index is 4.27.

As for FQTRQEMTSMSAELKMRASQAEER [I19S], the protein stability index came to 4.38.

As to FQTRQEMTSMSAELKMRAHQAEER [I19H], the protein stability index was 4.38.

In the case of FQTRQEMTSMSAELKMRADQAEER [I19D], the protein stability index was determined as 4.73.

For FQTRQEMTSMSAELKMRAKQAEER [I19K], the protein stability index stood at 4.68.

Regarding FQTRQEMTSMSATLKMRAIQAEER [E13T], the protein stability index was determined as 3.53.

As to FQTRQEMTSMSACLKMRAIQAEER [E13C], the protein stability index turned out to be 3.74.

With FQTRQEMTSMSAGLKMRAIQAEER [E13G], the protein stability index was determined as 3.6.

In the case of FQTRQEMTSMSAMLKMRAIQAEER [E13M], the protein stability index was 3.47.

Take FQTRQEMTSMSAPLKMRAIQAEER [E13P]: the protein stability index came out at 3.69.

For FQTRQEMTSMSAALKMRAIQAEER [E13A], the protein stability index was determined as 3.62.

As to FQTRQEMTSMSAKLKMRAIQAEER [E13K], the protein stability index came out at 3.61.

For the variant FQTRQEMTSMSASLKMRAIQAEER [E13S], the protein stability index came to 3.83.

Turning to FQTRQEMTSMSAFLKMRAIQAEER [E13F], the protein stability index stood at 3.1.

On to FQTRQEMTSMSADLKMRAIQAEER [E13D], for which the protein stability index was found to be 3.82.

For the variant FQTRQEMTSMSAYLKMRAIQAEER [E13Y], the protein stability index came out at 2.73.

For the variant FQTRQEMTSMSALLKMRAIQAEER [E13L], the protein stability index is 3.1.

On to FQTRQEMTSMSAWLKMRAIQAEER [E13W], for which the protein stability index was 2.97.

In the case of FQTRQEMTSMSAILKMRAIQAEER [E13I], the protein stability index was determined as 3.21.

In the case of FQTRQEMTSMSANLKMRAIQAEER [E13N], the protein stability index worked out at 3.1.
